Results reported in the nanobody polyreactivity screen of Harvey et al. (2022).

Experiment: yeast display, Sf9 membrane polyspecificity reagent, FACS + sequencing; frameworks hold sequencing errors
Outline: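 In a synthetic yeast display library (Saccharomyces cerevisiae BJ5465), nanobody expression was induced with galactose for 36–48 hours. FACS gates were set low and high (top ~1%) using anti-HA fluorescence for expression and streptavidin fluorescence for binding of the Sf9 membrane reagent. Each polyreactivity label is drawn from the gate of origin.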

Sequence | polyreactivity (PSR sort gate)
QVQLVESGGGLVQAGGSLRLSCAASGSIFDNAMGWYRQAPGKERELVADITNNGGSTYYADSVKGRFTISRDNAKNTVYLQMNSLKPEDTAVYYCAKRRNYWFSFDYWGQGTQVTVSS | low polyreactivity
QDQLVESGGGLVQAGGSLRLSCAASGLIFLYAMGWYRQAPGKERELVAAISNGGSTYYADSVKGRFTISRDNAKNTVYLQMNSLKPEDTAVYYCAAKGVRRRYRPDMYYWGQGTQVTVSS | high polyreactivity
QVQLVESGGGLVQAGGSLRLSCAASGRTFRPYAMGWYRQAPGKERELVAAIDSSGTSTYYADSVKGRFTISRDNAKNTVYLQMYSLKPEDTAVYYCAKAWPDHWYSRYDYWGQGTQVTVSS | low polyreactivity
QVQLVESGGGLVQAGGSLLLSCAASGRTFNVYAMGRYRQAPGKERELVAAINRGGRTNYADSVKGRYTISRDNAKNTVYLQMNSLKPEDTAVYYCAALRVYVNWHKIGYDYWGQGTQVTVSS | low polyreactivity
QVQLVESGGGLVQAGGSLRLSCAASGFTFNDYAMGWYRQAPGKERELVAAIDWSGGRTYYADSVKGRFTISRDNAKNTVYVQMNSLKPEDTAVYYCAAVLYSRLYWYRLDYWGQGTQVTVSS | low polyreactivity
QVQLVESGGGLVQAGGSLRLSCAASGSTFTGNSMGWYRQAPGKERELVAAISSSGASTYYADSVKGPFTISRDNAKNTVYLQMNSLKPEDTAVYYCAAELFYYPTPFREYDYWGQGTQVTVSS | low polyreactivity
QVQLVESGGGLVQAGGRLGLSCAASGRSFPWYTMGWYRQATGKERELVAAISSSGSTTYYADSVNGRFTISRDNAKITVYLQMNSLKPEDTAVYYCNKADPPEYDYWGQGTPVTVSS | high polyreactivity
QVQLVESGGGLVQAGGSLRLSCAASRFIFRRNAMGWYRQAPGKERELVAAITLSGGSTYYADSVKGRFTISRDNAKNTVYLQMKSLKPEDTAFYFCAARPGYYTRYDYWGQGTQVTVSS | low polyreactivity
QVQLVESGGGLLQAGGSHRLSCAASGRIFPAYAMGWYRQAPGKERELVASNRRGGITYADSVKGRFTISRDNAKNTVYLQMNSLKPEDTAVYYCNADYRGWGYHMDYWGQGTQVTVSS | low polyreactivity
QVQLVESGGGLVQAGGSLRLSCAASGRIFYFYAMGWYRQAPGKERELVAAITSGGGTYYADSVKGRFTISRDNAKNTVYLQMNSLKPEDTAVYYCDVRVYRTSWQGYYYWGQGTQVTVSS | high polyreactivity
QVQLVESGGGLVQAGGSLRLSCAASGFTFGWYAMGWYRQAPGKERELVATISWSGSSTYYADSVKGRFTISRDNAKNTVYLQMNSLKPEDTAVYYCNAVYGRFVVLRYDYWGQGTQVTVSS | high polyreactivity
QVQLVESGGGLVQAGGSLRLSCAASGFIFGYYAMGWYRQAPGKERELVARITSSGGSTYYADSVKGRFTISRDNAKNTVYLQMNSLKPEDTAVYYCAKSPRAPRYIPYGYWGQGTQVTVSS | high polyreactivity
QVQLVESGGGLVQAGGSLRLSCAASGRIFRVNAMGWYRQAPGKERELVARIDSGGRTNYADSVKGRFTISRDNAKNTVYLQMTSLKPEDTAVYYCARVFSLARSWYRYYYWGQGTQVTVSS | high polyreactivity
QVQLVESGGGLVQAGGSLRLSCAASGRTFRAYAMGWYRQAPGKERELVAAISYDGTRTYYADSVKGRFTISRDNAKNTVYLQMNSLKPEDTAVYYCNAVWVRGFYRVYDYWGQGTQVTVSS | high polyreactivity
QVQLQESGGVLVQAGGSLRLSCAARGYISLAQTIGWYRQAPGKEREFVASIALGSSTYYTDSEKGSFTISRDNAKTTVYLQMNSLKPEDTAVYYCAARVGASYAHDYWGQGTEVTVSS | low polyreactivity
QVQLVESGGGLVQAGGSLRLSCAASGLIFDRYPMGWYRQAPGKERELVAAINRSGGTTYYADSVKGRFTISRDNAKNTVYLQMNSLKPEDTAVYYCAARWQRYRSGTGDYWGQGTQVTVSS | high polyreactivity
QVQLVESGRGLVQAGGSLRLSCAASGRTFWTYTMGCYRQAPWKEREFVAAITFGDGSTSYADYVKGRFTISRDNAKNTVFLQMNSLKQEDTAVYYCAKRWRRRFVDVWSLYDYWGHGTQVTVSS | low polyreactivity
